According to US20140087995A1 (published 2014):

Key:
[1] = molecular target: T1, human amylin receptor (amylin 3(a) receptor: human calcitonin receptor plus RAMP-3) (human, UniProt P30988 25-474; O60896 24-148); assay: SPA competition binding, membranes with human amylin 3(a) receptor, displacement of 125I-rat amylin (Assay V)
T1 construct: whole, on cells; the species of RAMP-3 is told only through the name 'human amylin receptor'; also called hAmylin-R; hAmylinR
T1 sequence (looked up) 1: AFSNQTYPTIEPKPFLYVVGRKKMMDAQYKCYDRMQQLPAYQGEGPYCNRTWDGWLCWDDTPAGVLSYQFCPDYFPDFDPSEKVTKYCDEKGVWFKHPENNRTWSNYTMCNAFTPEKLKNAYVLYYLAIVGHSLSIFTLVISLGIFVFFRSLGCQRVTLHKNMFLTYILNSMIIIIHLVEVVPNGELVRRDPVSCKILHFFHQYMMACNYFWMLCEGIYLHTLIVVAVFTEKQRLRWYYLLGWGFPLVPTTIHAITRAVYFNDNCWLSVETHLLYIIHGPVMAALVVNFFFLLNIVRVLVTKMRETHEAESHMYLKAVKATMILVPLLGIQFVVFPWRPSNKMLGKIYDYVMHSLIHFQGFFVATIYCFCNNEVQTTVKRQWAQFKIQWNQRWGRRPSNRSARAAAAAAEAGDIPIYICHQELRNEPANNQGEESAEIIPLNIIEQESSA
T1 sequence (looked up) 2: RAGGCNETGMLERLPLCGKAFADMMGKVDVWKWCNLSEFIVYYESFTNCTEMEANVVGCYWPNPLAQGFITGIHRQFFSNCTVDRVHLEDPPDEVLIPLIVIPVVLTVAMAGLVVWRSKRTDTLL
Procedure: The binding assay was performed using scintillation proximity assay (SPA) beads (RPNQ0001) from PerkinElmer and cell membranes from the Amylin 3(a)/CRE-luc cells (as described in Assay (II)) were used. Membranes were prepared in the following way; the cells were rinsed with PBS and incubated with Versene for approximately 5 min before harvesting. The cells were flushed with PBS and the cell-suspension was centrifuged for 5 min at 1000 rpm. Cells were homogenized (ultrathurrax) in a buffer containing 20 mM Na-HEPES and 10 mM EDTA (pH 7.4) and centrifuged at 20.000 rpm for 15 min. The resulting pellet was resuspended, homogenized and centrifuged (20.000 rpm, 15 min) in a buffer containing 20 mM Na-HEPES and 0.1 mM EDTA (pH 7.4, buffer 2). The resulting pellet was resuspended in buffer 2 and protein concentration was measured (BCA protein Assay, Pierce). The homogenate was kept cold during the whole procedure. The membranes were kept at −80° C. until use. The assay was performed in a 384 well Optiplate (PerkinElmer) in a total volume of 40 ul. Membranes were mixed with SPA beads. Final concentration of membranes 35 ng/μL final and SPA beads was 0.05 mg/well. Test-compounds were dissolved in DMSO and further diluted in assay buffer (50 mM Hepes, pH 7.4, 1 mM CaCl2, 5 mM MgCl₂, 0.1% OA and 0.02% Tween20). […] The final mixture was incubated with shaking at 400 rpm for 120 min at 25° C. prior to centrifugation (1500 rpm, 10 min). Samples were analyzed on TopCounter™ (Packard). The IC₅₀ was calculated using (one site binding competition analysis) GraphPad Prism5 as a measure of receptor affinity.

[2] = molecular target: T2, human calcitonin receptor (human, UniProt P30988 25-474); assay: SPA competition binding, membranes with human calcitonin receptor, displacement of 125I-calcitonin (Assay VII)
T2 construct: whole, on cells; also called hCTR; hCT
T2 sequence (looked up): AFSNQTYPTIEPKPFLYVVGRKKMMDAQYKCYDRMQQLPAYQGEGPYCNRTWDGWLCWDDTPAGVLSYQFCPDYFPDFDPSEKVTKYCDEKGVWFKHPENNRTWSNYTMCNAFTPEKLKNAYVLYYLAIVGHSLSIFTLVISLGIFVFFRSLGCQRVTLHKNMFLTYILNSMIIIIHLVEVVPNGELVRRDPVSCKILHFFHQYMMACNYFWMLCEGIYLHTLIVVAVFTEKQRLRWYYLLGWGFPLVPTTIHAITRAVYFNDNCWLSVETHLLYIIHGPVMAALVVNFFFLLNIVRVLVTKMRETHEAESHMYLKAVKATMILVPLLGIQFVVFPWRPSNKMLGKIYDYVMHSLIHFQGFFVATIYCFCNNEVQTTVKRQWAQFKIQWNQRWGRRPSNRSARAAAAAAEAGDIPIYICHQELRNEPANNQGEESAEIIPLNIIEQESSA
Outline: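 BHK hCTR membranes 35 ng/μL + SPA beads 0.05 mg/well; buffer 50 mM Hepes pH 7.4, 1 mM CaCl2, 5 mM MgCl₂, 0.1% OA, 0.02% Tween20. 120 min, 25° C., shaking. Scintillation count; IC50 by one-site binding competition.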

[3] = molecular target: T2, human calcitonin receptor; assay: ratio of IC50 at hCTR to IC50 at the human amylin receptor (reference)
Outline: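 Competition binding by SPA with cell membranes (35 ng/μL) and SPA beads in 50 mM Hepes pH 7.4 with 1 mM CaCl2, 5 mM MgCl2, 0.1% OA and 0.02% Tween20. Incubated 120 min at 25 °C with shaking, then counted.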

B1: N^α1-[(4S)-4-carboxy-4-(19-carboxynonadecanoylamino)butanoyl]-[Arg17,Pro21,Pro27,Lys35]-h-amylin (peptide)
peptide: KCNTATCATQRLANFLRHSSPNFGAIPSSTNVGSKTY
modifications: C20 diacid-gGlu on the alpha amino group of the N-terminal residue; disulfide bridge Cys2-Cys7; C-terminal amide
notes: also called compound 34
B1 was tested, and the IC50 [1] was 1.14 nM, the IC50 [2] was 73.4 nM and the “Ratio hCT/hAmylin binding” value [3] was 64.4.
